Data from patent US20120093814A1, “Fusion Proteins Comprising Canine FC Portions” (BOEHRINGER INGELHEIM INTERNATIONAL GMBH, priority 2009, published 2012).
Each block holds one molecule with its values, some of them ahead of it. Positions of bridges follow the written chain, without caps; N, C: chain ends. No end group written: not given here.

Experiments:
[1] = biological target: T1, canine NPRA (natriuretic peptide receptor A), full length, stably expressed on HEK293 cells (canine (dog), UniProt A0A8I3MHU3 32-1060); test: cell-based or functional assay
T1 sequence: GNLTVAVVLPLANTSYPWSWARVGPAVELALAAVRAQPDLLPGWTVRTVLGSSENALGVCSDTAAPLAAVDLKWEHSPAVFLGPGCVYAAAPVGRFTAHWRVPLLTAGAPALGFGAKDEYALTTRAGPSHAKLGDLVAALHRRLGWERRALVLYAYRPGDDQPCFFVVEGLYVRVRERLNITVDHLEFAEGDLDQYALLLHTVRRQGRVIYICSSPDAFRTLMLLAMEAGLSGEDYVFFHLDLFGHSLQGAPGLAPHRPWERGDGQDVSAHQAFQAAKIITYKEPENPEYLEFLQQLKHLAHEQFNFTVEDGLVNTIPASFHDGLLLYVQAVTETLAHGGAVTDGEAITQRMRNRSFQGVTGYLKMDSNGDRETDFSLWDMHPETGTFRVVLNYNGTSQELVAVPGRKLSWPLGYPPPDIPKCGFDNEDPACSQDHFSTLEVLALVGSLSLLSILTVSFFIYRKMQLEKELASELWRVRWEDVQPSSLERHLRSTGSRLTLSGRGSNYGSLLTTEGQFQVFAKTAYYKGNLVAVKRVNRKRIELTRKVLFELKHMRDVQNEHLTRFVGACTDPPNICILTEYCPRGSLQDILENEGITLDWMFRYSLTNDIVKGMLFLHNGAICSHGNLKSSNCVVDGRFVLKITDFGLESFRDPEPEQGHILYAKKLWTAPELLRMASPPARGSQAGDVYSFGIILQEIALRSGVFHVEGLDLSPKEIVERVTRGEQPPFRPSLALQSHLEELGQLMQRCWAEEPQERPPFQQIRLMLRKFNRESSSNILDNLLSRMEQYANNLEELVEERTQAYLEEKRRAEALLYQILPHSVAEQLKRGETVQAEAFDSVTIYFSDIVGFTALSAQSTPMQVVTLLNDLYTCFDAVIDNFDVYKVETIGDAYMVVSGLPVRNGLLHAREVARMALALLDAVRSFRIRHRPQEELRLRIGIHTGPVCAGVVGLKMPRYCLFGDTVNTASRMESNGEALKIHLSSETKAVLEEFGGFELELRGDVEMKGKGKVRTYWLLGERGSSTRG

[2] = biological target: T1, canine NPRA (natriuretic peptide …); test: cell-based or functional assay; remark: listed apart in the source
[3] = biological target: canine NPRA (natriuretic peptide receptor A), full length, stably expressed on HEK293 cells (canine (dog)); test: cell-based or functional assay
[4] = Pharmacokinetics of ANP-caFc in conscious dogs following a single dose; format: in vivo, dog
Method: (§1) Dogs were administered a single IV dose (1 mg/kg or 17 nmol/kg) or SC dose (2.5 mg/kg or 42 nmol/kg) of ANP-caFc to assess PKPD over a period of 4 to 7 days. These doses were selected because they were similar to the dose-range employed to evaluate Cardeva (recombinant human serum albumin-BNP fusion protein) in dogs. […] The sensitivity of the ELISA used to reliably detect ANP-caFc in dog plasma was limited by having a minimum detection level in dog plasma of […]. In order to avoid plasma matrix effects, a minimum dilution of 1:50 was required when assaying beagle plasma. The linear range of the assay, in PBS, is […] to approximately 100 nM. In 2% beagle plasma the linear range of the curve is 1 nM to about 80 or 90 nM. FIG. 4 only provides an estimate of the estimated plasma levels and Table 2 presents the pharmacokinetics of ANP-caFc.

[5] = test system: conscious telemeterized beagles; test: Hemodynamic assessment in telemeterized conscious dogs (Study #1 and Study #2); format: in vivo, dog; conditions: for effect on HR (figure legend) / effect on mean arterial blood pressure (figure legend): Days 1-4 post-dose
Method: The criteria for dose selection was that the dose could not decrease mean arterial blood pressure more than 5-10 mmHg below baseline, and that it should increase plasma cGMP concentration approximately 1.5×-2× above baseline. […] In study #1, a total of 5 dogs were dosed subcutaneously with vehicle, or ANP-caFc at 0.5, 1 and 2.5 mg/kg based on a modified Latin square design over a 4-week period. This dose-range was chosen because it was expected to overlap the targeted plasma cGMP elevation based on the single dose dog PK study. The dosing interval was 7 days. One animal was excluded from the final data analysis due to a failure of telemetry device during the study. ANP-caFc produced a dose-dependent increase in peak plasma levels of cGMP (3.7-, 3.5- and 6.6-fold—of vehicle day value FIG. 6), a dose-dependent peak reduction in mean arterial blood pressure (MAP; −13±5, −19±4, and −20±5 mmHg vs. vehicle—FIGS. 7A and 7B), and peak heart rate was increased (+30 ±10, +29 ±9, and +25 ±9 beats per minute—FIGS. 8A and 8B).
Since the MAP decreased more than 10 mmHg during the peak effect for all three doses, Study #2 was performed with lower doses (0.05 and 0.25 mg/kg) in the same 4 dogs using a similar study design. […] The 0.05 mg/kg dose of ANP-caFc had no effect of MAP (1.9±1.4 mmHg), HR (1.8±0.6 beats per minute), or plasma cGMP. (Urine samples were also collected for cGMP excretion measurements, however, samples were contaminated by drinking water and could not be used.)

[6] = test system: plasma cGMP; test: Plasma cGMP levels in conscious dogs after IV and SC administration (preliminary PKPD); format: in vivo, dog; conditions: single SC dose 2.5 mg/kg
Method: as §1
Plasma cGMP following SC dosing appeared to be elevated above baseline ≧48 hours post-dose (FIG. 5).

[7] = single IV dose 1 mg/kg (17 nmol/kg)
[8] = single SC dose 2.5 mg/kg (42 nmol/kg)

cGMP EC50 (nM), cGMP induction on canine NPRA cells [1]: 0.2 nM
EC50 in the canine NPRA cGMP assay [2]: ~1 nM
Molecule: SLRRSSCFGGRMDRIGAQSGLGCNSFRY (disulfide 7-23 (inferred)) [canine ANP28]

cGMP EC50 (nM), Dog NPRA; lot 8760-110.3 [3]: 3 nM
cGMP EC50 (nM), Dog NPRA; lot 8760-137 [3]: 2.5 nM
cGMP EC50 (nM), Dog NPRA; lot 8760-174 [3]: 5.4 nM
cGMP EC50 (nM), Dog NPRA; lot 9081-51 [3]: 8.3 nM
cGMP EC50 (nM), Dog NPRA; lot 9081-53 [3]: 9.4 nM
B1: ANP28-20aa-CalgGB-Fc (recombinant canine ANP28 - (GGS)6GG linker - canine IgG-B Fc fusion protein) (Fc fusion)
chain: SLRRSSCFGGRMDRIGAQSGLGCNSFRYGGSGGSGGSGGSGGSGGSGGCPKCPAPEMLGGPSVFIFPPKPKDTLLIARTPEVTCVVVDLDPEDPEVQISWFVDGKQMQTAKTQPREEQFNGTYRVVSVLPIGHQDWLKGKQFTCKVNNKALPSPIERTISKARGQAHQPSVYVLPPSREELSKNTVSLTCLIKDFFPPDIDVEWQSNGQQEPESKYRTTPPQLDEDGSYFLYSKLSVDKSRWQRGDTFICAVMHEALHNHYTQESLSHSPGK
modifications: C-terminal Lysine residue missing in all lots produced (mass spectrometry); Fc glycosylated (G0, G1, G2)

B2: ANP-caFc: canine ANP-Fc fusion protein dosed to dogs; Fc isotype not stated, nmol/kg doses fit the IgG-B fusion (protein)
chain: B1 chain
AUC [4, 7]: 2.0 ± 0.46 µM·h
MRT [4, 7]: 12.2 ± 1.9 h
T½ [4, 7]: 8.3 ± 2.0 h
Vss [4, 7]: 0.107 ± 0.013 L/kg
AUC [4, 8]: 6.1 ± 0.3 µM·h
MRT [4, 8]: 41.6 ± 1.0 h
T½ [4, 8]: 15.4 ± 1.8 h
increase in peak plasma levels of cGMP, of vehicle day value ([5]; Study #1, SC 0.5 mg/kg): 3.7 fold
peak heart rate increase ([5]; Study #1, SC 0.5 mg/kg): +30 ±10 beats per minute
peak reduction in mean arterial blood pressure (MAP) vs. vehicle ([5]; Study #1, SC 0.5 mg/kg): −13±5 mmHg
increase in peak plasma levels of cGMP, of vehicle day value ([5]; Study #1, SC 1 mg/kg): 3.5 fold
peak heart rate increase ([5]; Study #1, SC 1 mg/kg): +29 ±9 beats per minute
peak reduction in mean arterial blood pressure (MAP) vs. vehicle ([5]; Study #1, SC 1 mg/kg): −19±4 mmHg
increase in peak plasma levels of cGMP, of vehicle day value ([5]; Study #1, SC 2.5 mg/kg): 6.6 fold
peak heart rate increase ([5]; Study #1, SC 2.5 mg/kg): +25 ±9 beats per minute
peak reduction in mean arterial blood pressure (MAP) vs. vehicle ([5]; Study #1, SC 2.5 mg/kg): −20±5 mmHg
effect on HR (figure legend) ([5]; Study #1, subcutaneous): dose-dependently increased
effect on mean arterial blood pressure (figure legend) ([5]; Study #1, subcutaneous): dose-dependently decreased
change in HR ([5]; Study #2, SC 0.05 mg/kg): 1.8±0.6 beats per minute
change in MAP ([5]; Study #2, SC 0.05 mg/kg): 1.9±1.4 mmHg
effect on plasma cGMP ([5]; Study #2, SC 0.05 mg/kg): no effect
change in MAP vs. vehicle ([5]; Study #2, SC 0.25 mg/kg): −6.6±1.6 mmHg
effect on plasma cGMP ([5]; Study #2, SC 0.25 mg/kg): moderate increase
increase in heart rate ([5]; Study #2, SC 0.25 mg/kg): 20±9 beats per minute
effect on HR (figure legend) ([5]; Study #2, subcutaneous): dose-dependently increased
effect on mean arterial blood pressure (figure legend) ([5]; Study #2, subcutaneous): dose-dependently decreased
time plasma cGMP elevated above baseline post-dose [6]: ≥ 48 h
